System: VHH 9E (humanized single-domain antibody) (synthetic humanized VHH library NaLi-H1)
Assay: ELISA
Details: ELISA: biotinylated DNA on avidin plates, 2 h binding, PBS/PBST washes (competition mix at RT). EMSA: PBS, 10% glycerol, RT 2 h, 8% native PAGE in TAE at 4 C. …

What does the source list for “AAAATACATTTATATATATCCTAGTCCGACCGCAGGATCCTATAA / TTATAGGATCCTGCGGTCGGACTAGGATATATATAAATGTA [41-mer dsDNA target (BIOTIN-R-CELL + O3-CELL)]”?
binding signal (pH 5): 82%; K half (serial dilutions of VHH on immobilized dsDNA, relative binding affinity): 200 nM
